Source: patent US20100021473A1 (DOMANTIS, published 2010)
One block for each binder: values may come before it.

What was measured:
CD138 on cells [1] = target: T1, CD138 on cells (UniProt P18827 23-310); assay: FACS on RPMI cells (CD38+/CD138+), dAb at 500 nM
T1 construct: whole, on cells; Endogenous CD138 on cell lines used in FACS; also called DOM12; syndecan-1
T1 sequence (looked up): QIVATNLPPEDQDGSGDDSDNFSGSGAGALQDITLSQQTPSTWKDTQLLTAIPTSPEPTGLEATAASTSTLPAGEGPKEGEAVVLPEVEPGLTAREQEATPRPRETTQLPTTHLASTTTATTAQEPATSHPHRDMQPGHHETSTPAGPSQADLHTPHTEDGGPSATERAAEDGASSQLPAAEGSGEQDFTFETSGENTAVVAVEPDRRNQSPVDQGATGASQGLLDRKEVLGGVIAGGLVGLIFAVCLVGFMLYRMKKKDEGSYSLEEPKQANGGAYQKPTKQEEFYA
Procedure: (§1) All dAbs were analysed by FACS on antigen positive and negative cell lines using the following method.
(§2) The determination of cell binding by FACS was carried out as follows: cells were centrifuged at 250 g for 5 minutes and the growth medium was removed. The cells were resuspended in FACS incubation buffer at 4° C. at a density of 2×10⁶ cells/ml. The cells were blocked by incubating for 15 minutes at 4° C. in FACS incubation buffer. Fifty microliters of 2× stock of primary antibody (anti-CD38 FITC, anti-CD138 FITC or mIgG1 FITC conjugated isotype control (all BD Biosciences) was added; or dAb was added to cells in FACS incubation buffer and incubated for 30-60 minutes at 4° C. The cells were then washed once in FACS incubation buffer. One hundred microliters of secondary antibody (rabbit anti-Vk) was added to cells in FACS incubation buffer and incubated 30-60 minutes at 4° C. The cells were washed once in FACS incubation buffer. Then 100 ul of 1× tertiary antibody was added to the cells in FACS incubation buffer and incubated for 30-60 mins at 4° C. (for dAbs the tertiary antibody is anti-rabbit FITC (Sigma)). The cells were washed twice in FACS incubation buffer. The cell pellet was resuspend in 200 ul FACS incubation buffer+viable cell marker (BD Viaprobe). The cells were then analyzed by flow cytometry.

[2] = target: T2, CD38 and CD138 co-expressed on cells (CD38+/CD138+ double positive cells) (UniProt P28907 1-300; P18827 23-310); assay: FACS cell binding titration on OPM2 cells (CD38+/CD138+), arithmetic mean fluorescence against log conc in nm
T2 construct: whole, on cells; Two separate membrane proteins on the same cell, not a complex; also called RPMI8226; OPM2

CD38 on cells = target: T3, CD38 on cells (UniProt P28907 1-300); assay: FACS on RPMI cells (CD38+/138+)
T3 construct: whole, on cells; Endogenous CD38 on cell lines used in FACS or microscopy; also called DOM11; T10
Procedure: as §1, §2

[3] = target: T4, CD38 immobilised on Biacore CM5 chip (UniProt P28907 43-300, limits assumed); assay: SPR (Biacore) co-injection on immobilised CD38, dAbs at 500 nM
T4 construct: also called DOM11
Procedure: (§3) Anti-CD38, anti-CEA and anti-CD56 dAbs that were identified as FACS positive clones were in addition analysed by Biacore using the following procedure. The CM5 chip surface was activated by flushing 1:1 EDC/NHS (0.4M1-ethyl-3-(3-dimenthylaminopropyl)-carbodiimide in water; 0.1 M N-hydroxysuccinimide in water) at a flow rate of 5 uL/min for 10 minute contact time. CD38 was immobilised at 500 nM in Acetate buffer pH4 at 5 uL/min this was repeated until the RUs reached between 500 and 1000 (low density). CEA and CD56 were coupled in acetate buffer pH 4.5. Any excess reactive groups were deactivated by running 1M ethanolamine-HCl over the CM5 chip (again 5 uL/min for 7 mins). The affinities of the anti-CD38, anti-CEA and anti-CD56 dAbs were measured on the biacore as described above.
Epitope mapping was performed to determine whether anti-CD38 dAbs bound to different epitopes on CD38. The assay was performed on BIAcore as described above using a chip coated at medium density (RUs of ˜2000). CD38 was coated on to a CM5 chip at medium density as described above. Using the co-inject function, the first anti-CD38 dAbs was injected at a concentration of 500 nM. Both the first and second anti-CD38 dabs were the co-injected at the same concentration (500 nM). As both dAbs bind different epitopes, the RUs during the second injection increase beyond the level of binding of the first dAb.

[4] = target: T4, CD38 immobilised on Biacore CM5 chip; assay: Biacore, CD38 immobilised; upper end of the printed range 330-500 nM (Table 8, affinity maturation experiment)
[5] = target: T4, CD38 immobilised on Biacore CM5 chip; assay: Biacore, CD38 immobilised; lower end of the printed range 330-500 nM (Table 8, affinity maturation experiment)
[6] = target: T4, CD38 immobilised on Biacore CM5 chip; assay: SPR (Biacore), CD38 immobilised on CM5 chip
Procedure: as §3

CD138 on cells [7] = target: T1, CD138 on cells; assay: FACS on HUVEC cells (CD38-/CD138+)
Procedure: as §1, §2

binding result (CD138 on cells [1]): binds
B1: DOM12-45 (other)
chain: DIQMTQSPSSLSASVGDRVTITCRASQDIGDRLRWYQQKPGKAPKLLIYHGSRLESGVPSRFSGSRSGTDFTLTISSLQPEDFATYYCQQQWFRPYTFGQGTKVEIKR
notes: Anti-CD138 dAb monomer

EC50 (read off the curve) [2]: 100 nM
B2: DOM11-3-15/DOM12-45-1 (bispecific antibody)
chain: DIQMTQSPSSLSASVGDRVTITCRASQNIDSRLSWYQQKPGKAPKLLIYRASVLQSGVPSRFSGTGSGTDFTLTISSLQPEDFATYYCQQWDMFPLSFGQGTKVEIKRSSGGGGSGGGGSGGGGSGGGGSGGGGSTDIQMTQSPSSLSASVGDRVTITCRASQDIGDRLRWYQQNPGKAPKLLIYHGSRLESGVPSRFSGNRSGTDFTLTISSLQPEDFATYYCQQQWFRPYTFGQGTKVEIKR

binding result (CD38 on cells): binds
binding result [3]: binds
B3: DOM11-23 (other)
chain: DIQMTQSPSSLSASVGDRVTITCRASQSINVRLIWYQQKPGKDPKLLIYSSSHLQSGVPSRFSGSGSGTDFTLTISSLQPEDFATYYCQQYHYTPFTFGQGTKVEIKR
notes: Anti-CD38 dAb monomer

Kd [4]: 330 to 500 nM
Kd [5]: 330 to 500 nM
Kd [6]: 250 nM
binding result (CD138 on cells [7]): no binding
B4: DOM11-3 (other)
chain: DIQMTQSPSSLSASVGDRVTITCRASQNIDSRLSWYQQKPGKAPKLLIYRTSVLQSGVPSRFSGSGSGTDFTLTISSLQPEDFATYYCQQWDMFPLTFGQGTKVEVK
notes: Anti-CD38 domain antibody (dAb) monomer; also called DOM11-3A
